Source: publication PMC3682478

Columns and labels:
Experiment in all cases: kinetic pause assay
[1] = molecular target: NusA NTD-S1-KH;RNA polymerase core (Escherichia coli;Escherichia coli, UniProt P0AFF6;P0A7Z4;P0A8V2;P0A8T7 1-348;1-329;1-1342;1-1407, |)
[2] = molecular target: NusA NTD;RNA polymerase core (Escherichia coli;Escherichia coli, UniProt P0AFF6;P0A7Z4;P0A8V2;P0A8T7 1-137;1-329;1-1342;1-1407, |)
[3] = molecular target: NusA NTD-S1;RNA polymerase core (Escherichia coli;Escherichia coli, UniProt P0AFF6;P0A7Z4;P0A8V2;P0A8T7 1-200;1-329;1-1342;1-1407, |)

Chain of NusA NTD;RNA polymerase core (P0AFF6 1-137, chain 1 of 4): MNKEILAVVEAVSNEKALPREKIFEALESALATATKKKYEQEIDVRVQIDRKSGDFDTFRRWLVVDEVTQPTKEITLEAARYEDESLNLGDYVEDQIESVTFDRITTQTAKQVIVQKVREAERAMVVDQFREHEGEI
Chain of NusA NTD;RNA polymerase core (P0A7Z4 whole entry, chain 2 of 4): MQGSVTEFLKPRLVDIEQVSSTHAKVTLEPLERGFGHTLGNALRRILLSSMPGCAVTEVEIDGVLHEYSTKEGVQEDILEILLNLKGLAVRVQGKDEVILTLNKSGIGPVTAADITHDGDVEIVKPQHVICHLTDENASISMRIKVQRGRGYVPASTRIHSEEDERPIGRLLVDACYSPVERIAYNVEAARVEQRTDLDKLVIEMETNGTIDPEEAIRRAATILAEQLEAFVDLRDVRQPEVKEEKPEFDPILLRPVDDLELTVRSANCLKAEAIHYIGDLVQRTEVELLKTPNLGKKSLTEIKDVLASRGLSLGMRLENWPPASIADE
Chain of NusA NTD;RNA polymerase core (P0A8V2 whole entry, chain 3 of 4): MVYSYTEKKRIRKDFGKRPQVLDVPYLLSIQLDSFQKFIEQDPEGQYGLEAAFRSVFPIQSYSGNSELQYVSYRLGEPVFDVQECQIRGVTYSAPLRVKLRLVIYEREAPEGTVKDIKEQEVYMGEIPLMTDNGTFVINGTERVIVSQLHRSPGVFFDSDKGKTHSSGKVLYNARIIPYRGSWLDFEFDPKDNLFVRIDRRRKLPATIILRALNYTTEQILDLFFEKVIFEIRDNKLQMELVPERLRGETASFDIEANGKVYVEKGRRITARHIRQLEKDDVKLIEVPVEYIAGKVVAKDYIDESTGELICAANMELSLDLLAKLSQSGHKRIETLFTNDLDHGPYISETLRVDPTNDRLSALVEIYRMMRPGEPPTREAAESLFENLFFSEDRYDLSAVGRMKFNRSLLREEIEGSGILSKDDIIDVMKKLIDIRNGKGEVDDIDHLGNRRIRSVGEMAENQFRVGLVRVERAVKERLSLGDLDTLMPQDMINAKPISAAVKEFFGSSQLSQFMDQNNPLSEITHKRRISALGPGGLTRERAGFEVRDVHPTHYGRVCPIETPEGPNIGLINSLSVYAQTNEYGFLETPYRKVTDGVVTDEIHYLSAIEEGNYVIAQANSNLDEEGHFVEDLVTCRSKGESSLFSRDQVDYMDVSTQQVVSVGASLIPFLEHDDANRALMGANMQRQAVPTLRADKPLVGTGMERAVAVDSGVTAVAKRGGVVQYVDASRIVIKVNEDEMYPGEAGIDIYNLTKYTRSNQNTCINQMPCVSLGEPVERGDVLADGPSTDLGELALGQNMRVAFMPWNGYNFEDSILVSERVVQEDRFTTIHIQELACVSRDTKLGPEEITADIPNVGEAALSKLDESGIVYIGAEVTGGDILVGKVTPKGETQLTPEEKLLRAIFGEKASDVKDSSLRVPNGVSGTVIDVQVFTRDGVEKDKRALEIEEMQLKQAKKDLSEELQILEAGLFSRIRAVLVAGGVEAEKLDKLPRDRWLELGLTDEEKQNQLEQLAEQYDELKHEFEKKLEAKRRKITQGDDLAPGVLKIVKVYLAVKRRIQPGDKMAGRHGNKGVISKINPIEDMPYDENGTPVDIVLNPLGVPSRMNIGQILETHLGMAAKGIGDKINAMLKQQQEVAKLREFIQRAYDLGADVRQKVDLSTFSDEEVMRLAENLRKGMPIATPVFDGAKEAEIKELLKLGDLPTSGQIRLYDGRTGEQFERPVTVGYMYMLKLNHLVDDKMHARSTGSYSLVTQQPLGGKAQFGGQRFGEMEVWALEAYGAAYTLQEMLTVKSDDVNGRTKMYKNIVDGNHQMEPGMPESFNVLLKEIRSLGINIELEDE
Chain of NusA NTD;RNA polymerase core (P0A8T7 whole entry, chain 4 of 4): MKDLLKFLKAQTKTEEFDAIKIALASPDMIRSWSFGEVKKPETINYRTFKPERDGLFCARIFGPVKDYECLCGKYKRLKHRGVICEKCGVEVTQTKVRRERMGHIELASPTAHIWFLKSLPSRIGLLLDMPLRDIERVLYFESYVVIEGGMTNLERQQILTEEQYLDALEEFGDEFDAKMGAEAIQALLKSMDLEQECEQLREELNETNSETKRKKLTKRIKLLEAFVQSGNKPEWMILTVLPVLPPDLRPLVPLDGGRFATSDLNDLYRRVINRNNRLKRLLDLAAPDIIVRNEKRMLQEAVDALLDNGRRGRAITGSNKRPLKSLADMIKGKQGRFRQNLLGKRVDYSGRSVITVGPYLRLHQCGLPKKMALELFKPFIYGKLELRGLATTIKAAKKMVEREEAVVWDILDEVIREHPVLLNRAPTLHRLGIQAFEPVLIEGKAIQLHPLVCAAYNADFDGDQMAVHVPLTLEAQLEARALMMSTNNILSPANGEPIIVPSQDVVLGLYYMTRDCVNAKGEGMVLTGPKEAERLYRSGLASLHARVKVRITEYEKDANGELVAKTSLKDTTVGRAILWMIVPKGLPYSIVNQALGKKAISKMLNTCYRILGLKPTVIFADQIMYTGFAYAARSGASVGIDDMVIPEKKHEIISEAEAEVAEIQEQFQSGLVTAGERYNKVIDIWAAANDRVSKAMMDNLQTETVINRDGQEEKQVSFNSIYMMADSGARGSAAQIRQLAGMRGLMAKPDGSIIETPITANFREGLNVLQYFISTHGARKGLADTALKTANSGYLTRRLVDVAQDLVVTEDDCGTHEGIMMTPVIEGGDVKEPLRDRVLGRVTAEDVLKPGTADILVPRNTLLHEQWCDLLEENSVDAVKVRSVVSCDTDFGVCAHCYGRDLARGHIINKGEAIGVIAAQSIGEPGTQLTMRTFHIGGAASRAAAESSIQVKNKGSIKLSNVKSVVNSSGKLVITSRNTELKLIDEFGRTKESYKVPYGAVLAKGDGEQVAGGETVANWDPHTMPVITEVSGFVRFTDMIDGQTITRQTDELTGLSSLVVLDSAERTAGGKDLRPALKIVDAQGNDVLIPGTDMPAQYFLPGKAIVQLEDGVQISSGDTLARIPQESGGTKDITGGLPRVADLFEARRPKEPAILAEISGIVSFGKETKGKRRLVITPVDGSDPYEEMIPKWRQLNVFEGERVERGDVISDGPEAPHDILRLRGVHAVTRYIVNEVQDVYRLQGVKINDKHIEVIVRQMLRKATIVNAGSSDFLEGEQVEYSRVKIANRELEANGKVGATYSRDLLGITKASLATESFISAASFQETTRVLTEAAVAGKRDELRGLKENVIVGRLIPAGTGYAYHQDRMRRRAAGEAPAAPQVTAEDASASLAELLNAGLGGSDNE

B1: his PTC scaffold (RNA at U29) (mixed)
DNA 1: GGTCAGTACGTCCATTCGATCTTCGGAAGAGATTCAGAG
DNA 2: CTCTGAATCTCTTCCAGCACACATCAGGACGTACTGACC
RNA: CCUGACUAGUCUUUCAGGCGAUGUGUGCU
- Ki [1]: 11.8 ± 8.7 nM
- Ki [2]: 55.4 ± 27.8 nM
- Ki [3]: 74.6 ± 19.4 nM
